Measured values from patent EP4703474A1, “ANTI-LRRC15 ANTIBODY” (priority 2023, dated 2024).
Substitutions are numbered along the chain they refer to.

B1: H02L01-PBD (conjugate)
heavy: EVQLVESGGGLVQPGGSLRLSCAASGFTFRDYYMAWVRQAPGKGLEWVSSIGFDESRTYYADSVKGRFTISRDDSKNTLYLQMNSLRAEDTAVYYCARHGVSYYSGDNWFAYWGQGTLVTVSSASTKGPSVFPLAPSSKSTSGGTAALGCLVKDYFPEPVTVSWNSGALTSGVHTFPAVLQSSGLYSLSSVVTVPSSSLGTQTYICNVNHKPSNTKVDKKVEPKSCDKTHTCPPCPAPEAAGGPSVFLFPPKPKDTLMISRTPEVTCVVVDVSHEDPEVKFNWYVDGVEVHNAKTKPREEQYNSTYRVVSVLTVLHQDWLNGKEYKCKVSNKALAAPIEKTISKAKGQPREPQVYTLPPSREEMTKNQVSLTCLVKGFYPSDIAVEWESNGQPENNYKTTPPVLDSDGSFFLYSKLTVDKSRWQQGNVFSCSVMHEALHNHYTQKSLSLSPGK
light: DIQMTQSPSSLSASVGDRVTITCKSSQGLLYSGDQKNYLAWYQQKPGKAPKLLIYWASTRQSGVPSRFSGSGSGTDFTLTISSLQPEDFATYYCQQYYDPPYTFGQGTKVEIKRTVAAPSVFIFPPSDEQLKSGTASVVCLLNNFYPREAKVQWKVDNALQSGNSQESVTEQDSKDSTYSLSSTLTLSKADYEKHKVYACEVTHQGLSSPVTKSFNRGEC
B2: H02L01-V1-PBD (conjugate)
heavy: B1 heavy with Y103K
light: B1 light
B3: H02L01-V2-PBD (conjugate)
heavy: B1 heavy with Y103R
light: B1 light

System: LRRC15-positive human osteosarcoma cell line HuO9
Assay: In vivo antitumor effect, HuO9 subcutaneous transplant model
Details: tail vein, on Day 10, female SCID mice
Protocol: The antitumor effects of the antibody-drug conjugates were evaluated by using animal models in which cells of the human tumor cell line had been transplanted into immunodeficient mice. 4 to 6 Week-old SCID mice (CB17/Icr-Prkdc[scid]/CrlCrlj, Jackson Laboratory Japan, Inc.) were habituated for 3 days or more under SPF conditions before experimental use. The mice were fed with sterilized solid feed (FR-2, Funabashi Farms Co., Ltd.) and given sterilized tap water (prepared by adding a solution of 5 to 15 ppm sodium hypochlorite). The major and minor diameters of the transplanted tumors were measured twice a week with an electronic digital caliper ([…] Corporation), and the estimated tumor volume was calculated using the following formula. Estimated tumor volume (mm^3) = 1/2 × major diameter (mm) × [minor diameter (mm)]^2 All antibody-drug conjugates were diluted with ABS and administered into the tail vein at doses shown in each Example. In addition, ABS (vehicle) or control hIgG-PBD prepared in Reference Example 4 was administered as the control group, in a similar manner. 5 to 6 Mice were used per group in the experiment. Based on publicly known information, LRRC15-positive human osteosarcoma cell line HuO9 (JCRB) was suspended in Matrigel (Corning Incorporated), 5.0 × 10^6 cells were subcutaneously transplanted into the right flank of female SCID mice (Day 0), and random grouping was performed on Day 10. On the day of grouping, the vehicle, the antibody-drug conjugates […]-PBD, […]-V1-PBD, and […]-V2-PBD prepared in Example 5, or the control hIgG-PBD prepared in Reference Example 4 was administered at a dose of 0.4 mg/kg, and the huM25-MMAE prepared in Reference Example 5 was administered at a dose of 0.4 mg/kg or 3.6 mg/kg into the tail vein. The abscissa indicates the number of days, and the ordinate indicates estimated tumor volume, and the error bars indicate SEM values. […] The antitumor effects of the antibody-drug conjugates were evaluated by using animal models in which cells of a human tumor cell line had been transplanted into immunodeficient mice, or cells of a mouse tumor cell line had been transplanted into immunocompetent mice. 4 to 6 Week-old SCID mice (CB17/Icr-Prkdc[scid]/CrlCrlj, Jackson Laboratory Japan, Inc.), NSG mice (NOD.Cg-Prkdcscid Il2rgtm1Wjl/SzJ, Jackson Laboratory Japan, Inc.), or B6J mice (C57BL/6J, Jackson Laboratory Japan, Inc.) were habituated for 3 days or more under SPF conditions before experimental use. The mice were fed with sterilized solid feed and given sterilized tap water. The major and minor diameters of the transplanted tumors were measured twice a week with an electronic digital caliper (Mitutoyo Corporation), and the estimated tumor volume was calculated using the following formula. Estimated tumor volume (mm^3) = 1/2 × major diameter (mm) × [minor diameter (mm)]^2 All antibody-drug conjugates were diluted with ABS and administered into the tail vein at doses shown in each Example. In addition, ABS (vehicle) or control hIgG-PBD prepared in Reference Example 4 was administered as the control group, in a similar manner. 5 to 6 Mice were used per group in the experiment. Based on publicly known information, LRRC15-positive human osteosarcoma cell line HuO9 (JCRB) was suspended in Matrigel (Corning Incorporated), 5.0 × 10^6 cells were subcutaneously transplanted into the right flank of female SCID mice (Day 0), and random grouping was performed on Day 10. On the day of grouping, a vehicle, the antibody-drug conjugate […]-V1-PBD or […]-V2-PBD prepared in Example 5, or huM25-PBD prepared in Reference Example 6-2 was administered into the tail vein at a dose of 0.3 mg/kg. The abscissa indicates the number of days, and the ordinate indicates estimated tumor volume, and the error bars indicate SEM values.

[1] = 0.4 mg/kg, huM25-MMAE at 0.4 mg/kg or 3.6 mg/kg
[2] = 0.3 mg/kg, huM25-PBD at the same dose

Row | Molecule | antitumor effect (estimated tumor volume) [1] | antitumor effect (estimated tumor volume) [2] | tumor regression (0.4 mg/kg)
1 | B1 | antitumor activity higher than that of the vehicle, the control hIgG-PBD, and huM25-MMAE | – | –
2 | B2 | antitumor activity higher than that of the vehicle, the control hIgG-PBD, and huM25-MMAE | antitumor activity higher than that of the vehicle and huM25-PBD | lead to tumor regression
3 | B3 | antitumor activity higher than that of the vehicle, the control hIgG-PBD, and huM25-MMAE | antitumor activity higher than that of the vehicle and huM25-PBD | lead to tumor regression
